B1: Sec8 (natural protein)
chain: MDYLKPAQKGRRRGLSINSLSETQQSAMNSSLDHLQNDLNRINLQWNRILSDNTNPLELALAFLDDTSVGLGHRYEEFNQLKSQIGSHLQDVVNEHSQVFNTNVASYGKAVSSIMQAQEQTLNLKNCLKEANEKITTDKGSLQELNDNNLKYTKMIDVLVNIEELLQIPEKIEENIRKENFHQVQILLERGFILMNNKSLKTVEILKPINQQLELQEHLLFNNLIEEIHDIMYSKSNKTNFTRVTNNDIFKIISISHNGFTSLENYLYNIVNIDIMEHSKTINKNLEQFIHDQSLNKGNIMLQENAATQAPLAPSRNQENEGFNRIGFLLKTINNINKLPVAFNIITERAKEEIHNIIVKSTESIRSKHPSLLKMATSLKNDNHFGLPVQDILSIILRECFWEIFLKLLYAIQCHRAIFEMSNILQPTSSAKPAFKFNKIWGKLLDEIELLLVRYINDPELISSNNGSIKPINGATNNAPTLPKRKNPKIFSLEYNIEDNSSVKDQAFELKALLKDIFPGFSVSSNMDLDSIYVKDESFEQDEPLVPPSVFNMKVILDPFLLFTQSTSTIVPSVLTQNTISSLTFFDDYMNKSFLPKIQMTMDYLFTVEVESNNPYALELSDENHNIFKTALDFQRLFYNLLNVFNTANTFREKISYCILDLLNHFYNYYLGLFNSLIGTSDRHLTRKIITAWLQNGILMDQEQKILNGDETLFHEESIELFKEIPHFYQAGKGLSKSDLFNNLTLDTILQFSASVLWILNWLPGLKKAINIDEVSQEPMLDADRLRSSWTFSESMDLNYSNPSSSPNSLGNLKILLDDKASKKFDETIDGFKTLKFKLITILRFNIRALCIYDIGSFFQNTKIWNMDVGSIELDQNIASLISELRRTESKLKQQLPEKEKNSIFIGLDIVNNYALIKGAKSIKVLNHNGIKKMLRNVNVLQHAYRNLSSEPSKINMNVTMNFYSLCGSSEAELFEYIKDNELPHCSVEDLKTILRLQFSEEMHRQLKRQSTSSTKGSIKPSNKRYTEALEKLSNLEKEQSKEGARTKIGKLKSKLNAVHTANEK
B2: Sec5 (natural protein)
chain: MDRFQIGDEQLLRFYQLKTINPTHSWAQDSSKLNNEEATSNELGVETSFDILKDFKYGNQISIDKESRAYLNDESLSYIRDPLNGQEMSKELQHLPNDSMRLNYLVNSKQFNVKAFLRDMHKQDSFNDLNNSLDRLDSDIQDQSIHLKQLVGKNFTKYVKIKNKLDQIYKEFDEKTNEKNQCDSPKENQINVESLNKKVDEVIRTTTFKLKPLMDNYQKILNYQATKKFIELNKFYFNLPKSLKRCLTNNDFNEFIIEYSKGLTLRRRFNQSSDASQSLVIKRIWTQIENLLVTYKDLIWNSLINSNFNIDQPQETILSLFSKLLNLENFINNNQRESESGNKNTTSSSNENPILRWMSIKMNGFQNELNELSGHMISKIIHSQRLILQNNTNQDKSQGCVELSYYLKINQLFQIISDTGKDSEGLKSTVEPNKVNTISGTSYLNLNCQPSSQGLTDSPTIIEMWLLILKYINDLWKICDQFIEFWEHIEKFLDGTYQNSIINEKRKENILIGDSNIIESYQKSLILKEEQINEVRLKGEEFITSVSQNLISFFTSSQSSLPSSLKDSTGDITRSNKDSGSPLDYGFIPPNCNGLSCLRYLPKIVEPILKFSTELAQLNITTNGITICRNTLSTIINRCVGAISSTKLRDISNFYQLENWQVYETVTFSSKSQDSSKNLTFEYGVTQFPEIVTSFQEVSIKTTRDLLFAYEKLPIINGISVVSYPSKQLLTGIEIQQIISMEAVLEAILKNAAKDKDNPRNSHTILTLTNLQYFRECAFPNILQYFDDAFEWNLASKNLELFSLLSKMESSIFGNYLSDLKINLRDTLEEKFHEINWPMYTSNSFRVGDYIIEALMILIVVHSECFRIGPQLIHKILIETQIFIARYLFEAFKPYVGNLSNDGSLQIIVDLEFFQKVMGPLLEKDTEATLRACLQNCFQNDTNRLQKCINEINPIVSANLKRTAIQFAAFS
B3: Sec15 (natural protein)
chain: MDQEGQPLLSKDFQQVLLATASGNNSSWTERAVLNNESTDAVKHEPALGQNDVFDLDPLSFDKWVPFLRRALDKNQLDPVIDELENSIEDNFQGLELQLLQDSQMNDKLETSIDEIANIQGMVQDTLSSEISKFQIRLSESANELIVKKQMYVNNKKISLKISEATILITKVVRILELSSKCQELITERKFFKVLQNLDSLEKLYLQEFKNYNFQFLIEIYNSIPFLQKVTKDECINLIRNSLNLNLGKNLIKVGQEFVAIYENELLPQWLETRSKMKLTNFKFNSPIEISMRDESFLAKLNLGEFFQLDDFHDSIMIFQNLNELSVLSGEFNKEYELRKTKLMYPLIWKKNKTAAYQMDSLLRGTGTTPGSTAHDVSTDDPFTQSLSLHFLQDYFLKILGFLLYDINLNKATEFILVDNNYNSTNEFWDGLMDRLSPYLSYFIDEKLKTEEDMIKLKDFLCIYVAILENFKLNIEPLYKILVSIFEKFCSVSLRAFDDEFQILLNDDDFMPLSINDKTLYEKVLKICWMKEGEHLSLPDPTNGEPFAVTLPFSPLYPMTCTLAKKTYSKITAFLSIFYRHELHTLNNILVKTMDDIFNDIVNKKIRSKLESTSREEIAQILVNLDYFIIAAKEFSNFMTRENILQNPDMEIRLSSIKYLAESRKLAETKLIELIDSKISDILETIEIDWQITEVRQDPDISIIDLAQFLEMMFASTLQNLPYSVQTLLIFREFDSLTRQFMGLLLHDTPSTITHESIMNFEVDVNYLESIIPRIFPSTPGTIDSNGYQSPMTPSTPTFPNANGVDAPTLFENNIKSLEATFMELKQCIELLKTQGKDYNEPEIRLRKYSRIRQEDAALLLSKIQHFVSSVEGANGDDTSVMDSSSIFNSESASVIDSNTSRIAKFFNRR

Columns and labels:
Sec3 = target: T1, Sec3 (S. cerevisiae, UniProt P33332 1-1336); assay: […]
T1 sequence: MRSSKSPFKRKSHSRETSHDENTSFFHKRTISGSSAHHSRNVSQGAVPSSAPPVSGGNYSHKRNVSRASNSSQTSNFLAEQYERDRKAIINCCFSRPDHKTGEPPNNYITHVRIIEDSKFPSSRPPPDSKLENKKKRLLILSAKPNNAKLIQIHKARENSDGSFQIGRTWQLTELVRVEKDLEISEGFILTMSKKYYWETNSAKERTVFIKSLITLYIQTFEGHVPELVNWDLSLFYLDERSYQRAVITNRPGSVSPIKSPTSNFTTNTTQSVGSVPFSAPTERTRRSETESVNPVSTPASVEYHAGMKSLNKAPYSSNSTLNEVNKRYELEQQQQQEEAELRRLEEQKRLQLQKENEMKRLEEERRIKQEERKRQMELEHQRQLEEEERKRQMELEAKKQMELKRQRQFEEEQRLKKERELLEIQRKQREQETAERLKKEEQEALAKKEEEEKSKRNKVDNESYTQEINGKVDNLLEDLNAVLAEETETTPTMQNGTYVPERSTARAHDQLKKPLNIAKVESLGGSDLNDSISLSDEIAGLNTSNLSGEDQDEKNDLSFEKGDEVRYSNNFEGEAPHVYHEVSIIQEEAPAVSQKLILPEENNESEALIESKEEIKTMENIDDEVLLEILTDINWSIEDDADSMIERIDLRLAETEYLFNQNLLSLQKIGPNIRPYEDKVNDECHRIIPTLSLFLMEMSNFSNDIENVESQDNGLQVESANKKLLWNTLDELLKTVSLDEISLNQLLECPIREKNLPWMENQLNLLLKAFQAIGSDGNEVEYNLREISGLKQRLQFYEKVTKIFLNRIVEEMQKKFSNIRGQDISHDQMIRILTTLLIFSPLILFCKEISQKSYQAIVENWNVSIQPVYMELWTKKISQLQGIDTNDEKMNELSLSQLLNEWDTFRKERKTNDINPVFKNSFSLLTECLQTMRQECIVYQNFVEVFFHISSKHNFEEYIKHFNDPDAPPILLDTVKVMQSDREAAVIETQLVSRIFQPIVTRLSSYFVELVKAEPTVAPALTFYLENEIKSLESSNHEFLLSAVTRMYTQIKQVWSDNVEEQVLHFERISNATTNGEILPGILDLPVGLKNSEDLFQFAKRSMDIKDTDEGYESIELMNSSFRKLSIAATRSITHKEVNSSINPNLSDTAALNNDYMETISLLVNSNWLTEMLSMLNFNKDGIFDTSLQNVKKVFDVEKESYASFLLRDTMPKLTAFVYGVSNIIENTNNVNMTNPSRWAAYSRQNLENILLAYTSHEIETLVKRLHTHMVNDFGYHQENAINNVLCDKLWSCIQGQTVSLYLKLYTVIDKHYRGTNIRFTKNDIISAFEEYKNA

Sec8 = target: B1; assay: […]

**Q.** Does B1 bind (Sec3)?
**A.** binds

**Q.** What does the source list for B2?
**A.** binding result (Sec3): binds; binding result (Sec8): binds

**Q.** Does B3 bind (Sec8)?
**A.** binds
